In paper PMC6602975, “Structure and function of the Orc1 BAH-nucleosome complex” (Nature Communications, 2019):

Legend:
[1] = target: T1, Histone H4 (X. laevis), in the nucleosome core particle (X. laevis, UniProt P62799 1-103); assay: crystal structure; Orc1 BAH L79I mixed with nucleosome 3:1, complex purified by gel filtration; sitting drop at 4 °C, 6 mM Na-cacodylate pH 6.0, 0.4 mM spermine-HCl, 2 mM MgCl2, 1.75% PEG 400; 3.3 Å; conditions: both partners purified
T1 construct: histone H4, X. laevis; Stood in the crystal as part of the nucleosome m12; source: bacterial expression vector

[2] = target: Histone H2B (X. laevis), in the nucleosome core particle (X. laevis, UniProt P02281 1-126); assay: as above; conditions: both partners purified

B1: Orc1 BAH L79I mutant (domain or fragment)
chain: MAKTLKDLQGWEIITTDEQGNIIDGGQKRLRRRGAKTEHYLKRSSDGIKLGRGDSVVMHNEAAGTYSVYMIQELRLNTINNVVELWALTYLRWFEVNPLAHYRQFNPDANILNRPLNYYNKLFSETANKNELYLTAELAELQLFNFIRVANVMDGSKWEVLKGNVDPERDFTVRYICEPTGEKFVDINIEDVKAYIKKVEPREAQEYLKDLTLP
modifications: N-alpha-acetyl on A2 (acetylated N-terminus visible in the structure)
notes: Orc1 BAH domain, S. cerevisiae, amino acids 1-214, L79I; Used for the crystal structure and in EMSA; source: SF9 insect cells (baculovirus), purified (Ni-NTA, SP-Sepharose FF, Superdex-200)
- binding result [1]: binds
- binding result [2]: binds
